Experimental data taken from article PMC2648313, “Identification of Rhoptry Trafficking Determinants and Evidence for a Novel Sorting Mechanism in the Malaria Parasite Plasmodium falciparum” (PLoS Pathogens, 2009).
Changes are numbered by the printed parent chain.

T1: RAP1(22-152) mutant, residues 40, 42 and 45 to glycine (P. falciparum 3D7, UniProt Q9U429 22-152, aromatic residue 40 to glycine | aromatic residue 42 to glycine | aromatic …)
T1 construct: not shown: His6, C-terminal, kept
T1 sequence: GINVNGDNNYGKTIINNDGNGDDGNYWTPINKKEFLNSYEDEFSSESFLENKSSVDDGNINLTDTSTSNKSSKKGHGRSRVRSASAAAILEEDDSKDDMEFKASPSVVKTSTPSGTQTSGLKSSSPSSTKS

T2: RAP1(22-152) mutant, aspartate 39, 43 and 44 to arginine (P. falciparum 3D7, UniProt Q9U429 22-152, aspartate 39 to arginine | aspartate 43 to arginine | aspartate 44 to arginine)
T2 construct: not shown: His6, C-terminal, kept
T2 sequence: T1 sequence with D18R, G19F, G21F, D22R, D23R, G24Y

T3: RAP1(22-152) mutant, aspartate 39, 43 and 44 to alanine (P. falciparum 3D7, UniProt Q9U429 22-152, aspartate 39 to alanine | aspartate 43 to alanine | aspartate 44 to alanine)
T3 construct: not shown: His6, C-terminal, kept
T3 sequence: T1 sequence with D18A, G19F, G21F, D22A, D23A, G24Y

T4: RAP1(22-152), recombinant His6-tagged RAP1 protein representing amino acids 22-152 (P. falciparum 3D7, UniProt Q9U429 22-152)
T4 construct: contains the RAP1 rhoptry signal (22-55); Amplified from 3D7 genomic DNA, cloned NcoI/XhoI into pET28b upstream of the His6 tag; not shown: His6, C-terminal, kept
T4 sequence: T1 sequence with G19F, G21F, G24Y

B1: RAMAE, RAMA-GST fusion protein representing amino acids 759-840 (domain or fragment)
chain: DNKFVAHKKREKSISPHSYQKVSTKVQNKENMENKEKKQLINDEAAMTAEELVELENTEDVNTPTMVETEEIDFDENGNKSS
notes: rhoptry associated membrane antigen (RAMA), P. falciparum, amino acids 759-840; source: E. coli BL21 (DE3), purified (glutathione resin)
B2: RAMAE1, RAMA-GST fusion protein representing amino acids 759-798 (domain or fragment)
chain: DNKFVAHKKREKSISPHSYQKVSTKVQNKENMENKEKKQL
notes: rhoptry associated membrane antigen (RAMA), P. falciparum, amino acids 759-798; Amplified from P. falciparum cDNA and cloned into pGEX-4T-1; source: E. coli BL21 (DE3), purified (glutathione resin)

What was measured:
Assay in all cases: pull-down; 100 ug His6-tagged RAP1 recombinant protein immobilised on TALON resin, incubated O/N at 4 C with purified GST-fusion proteins in pull-down buffer (50 mM Na2HPO4, 75 mM NaCl, 0.1% Triton X-100, 5 mM imidazole, pH 7.4); eluted with imidazole; Coomassie gel and immunoblot with anti-GST
Conditions in all cases: both partners purified
[1] = biological target: T1, RAP1(22-152) mutant, residues 40, 42 …
[2] = biological target: T2, RAP1(22-152) mutant, aspartate 39, 43 …
[3] = biological target: T3, RAP1(22-152) mutant, aspartate 39, 43 …
[4] = biological target: T4, RAP1(22-152), recombinant His6-tagged …

Binder | binding result [1] | binding result [2] | binding result [3] | binding result [4]
B1 | binds | binds | binds | binds
B2 |  |  |  | binds
